T1: human melanocyte stimulating hormone receptor (MSH receptor), polypeptide of SEQ ID NO:2 (human, UniProt Q01726 1-317)
T1 construct: also called 11D cDNA product; expressed MSH receptor
T1 sequence: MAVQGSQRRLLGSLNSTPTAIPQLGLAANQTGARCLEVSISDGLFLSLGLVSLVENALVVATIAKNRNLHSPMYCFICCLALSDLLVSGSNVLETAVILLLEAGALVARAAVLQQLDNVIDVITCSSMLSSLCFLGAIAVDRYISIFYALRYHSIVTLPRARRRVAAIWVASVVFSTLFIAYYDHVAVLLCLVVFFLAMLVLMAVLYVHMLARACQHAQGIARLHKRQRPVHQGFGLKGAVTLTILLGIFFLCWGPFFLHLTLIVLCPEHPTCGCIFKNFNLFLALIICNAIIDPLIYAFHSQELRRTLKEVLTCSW

T2: MC-2 receptor, polypeptide of SEQ ID NO:16 (human, UniProt P33032 1-325)
T2 construct: Tested on COS-7 cells transfected with pE-MC-2; also called MSH receptor subtype; pE-MC-2 transfected COS-7 cells
T2 chain: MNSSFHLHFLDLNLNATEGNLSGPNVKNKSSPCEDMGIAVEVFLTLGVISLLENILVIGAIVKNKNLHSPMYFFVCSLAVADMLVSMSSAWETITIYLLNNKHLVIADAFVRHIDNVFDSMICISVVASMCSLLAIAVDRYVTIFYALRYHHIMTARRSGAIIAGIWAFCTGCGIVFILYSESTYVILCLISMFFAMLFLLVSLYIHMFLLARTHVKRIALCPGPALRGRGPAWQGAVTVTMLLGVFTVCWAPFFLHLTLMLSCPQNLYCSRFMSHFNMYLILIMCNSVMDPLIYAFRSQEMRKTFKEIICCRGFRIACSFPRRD


Tests used:
[1] = target: T1, human melanocyte stimulating hormone …; assay: competition with 125I-NDP-MSH on pE-11D transfected COS-7 cells; Cheng-Prusoff from IC50
Description: (§1) 20877, USA). Eighty percent confluent cultures were transfected with 1 μg of pE-11D plasmid DNA and 40 μg lipofectin (BRL, 8400 Helgerman Court, Gaithersburg, Md. 20877, USA) in serum free medium. Five hours after transfection, serum containing medium was replaced, and cells were cultivated for 20 hours. Cells were then scraped off, centrifuged, resuspended in serum containing medium, plated on 48 well plates, and allowed to grow for 24 hours. […] Radioactivity was counted and data analyzed by iterative, non-linear curve fitting programme suitable for radioligand binding analysis (see FIG. 6). […] The Kᵢ-values were then calculated from the IC-50 values estimated thus estimated by using the Cheng and Prusoff equation, as previously described (Cheng and Prusoff 1973).

[2] = target: T2, MC-2 receptor, polypeptide of SEQ ID …; assay: competition with 125I-NDP-MSH on pE-MC-2 transfected COS-7 cells
Description: as §1, with “Eighty” for “20877, USA). Eighty”, “pE-MC-2” for “pE-11D”, “9).” for “6).”

[3] = target: T2, MC-2 receptor, polypeptide of SEQ ID …; assay: competition with 125I-NDP-MSH on pE-MC-2 transfected COS-7 cells; Cheng-Prusoff from IC50
Description: as §1, with “Eighty” for “20877, USA). Eighty”, “pE-MC-2” for “pE-11D”, “9).” for “6).”

Row | Binder | Ki [1] | binding result [2] | Ki [3]
1 | MEHFRWG (peptide, UniProt P01189 141-147, looked up, domain: ACTH (4-10); Bought from Saxon Biochemicals GmbH) [ACTH (4-10)] | 22.4 nM | – | –
2 | YGGFMTSEKSQTPLVTLFKNAIIKNAYKKGE (peptide, UniProt P01189 237-267, looked up, domain: β-endorphin; Bought from Saxon Biochemicals GmbH; also called non-melanotropic POMC peptide β-endorphin) [β-endorphin] | – | no binding | –
3 | DEGPYRMEHFRWGSPPKD (peptide, UniProt P01189 217-234, looked up, domain: β-MSH; Bought from Saxon Biochemicals GmbH; also called beta-melanocyte stimulating hormone) [β-MSH] | 0.449 nM | – | 1750 nM
4 | SYSMEHFRWGKPVGKKRRPVKVYPNGAEDESAEAFPLEF (peptide, UniProt P01189 138-176, looked up, domain: ACTH (1-39); Bought from Saxon Biochemicals GmbH; also called adrenocorticotropic hormone (1-39)) [ACTH (1-39)] | 0.17 nM | – | 929 nM
